Source: patent publication US4732933A, “Neocarzinostatin complexes, a method for producing the same, and an antitumor agent containing said complexes as an active component” (Kayaku Antibiotics Research Co., Ltd., priority 1982, dated 1988)

Key:
[1] = Solubility of SMANX in various solvents compared with NCS and starting copolymer (Table 1); type: physicochemical; conditions: concentration: 1 mg/ml
Method: |(concentration: 1 mg/ml)

cancer VX-2 of liver = assay: Tumor affinity in cancer VX-2 of liver after intravenous injection; type: in vivo, rabit
From the text: Tumor affinity in cancer VX-2 of liver of
rabit after intravenous injection of SMANX

[2] = tested on: normal fibroblasts of rabit; assay: Cell toxicity to normal fibroblasts; type: cell-based; set-up: key to Cell toxicity to normal fibroblasts: +: Intensity of toxicity; -: No toxicity; conditions: for Cell toxicity to normal fibroblasts: judgement after 3 days
From the text: Comparison of cell toxicity
to normal fibroblasts of rabit*
*Judgement after 3 days

Compound	Solubility in 10 mM aqueous solution of sodium bicarbonate [1]	Solubility in Acetone [1]	Solubility in Dioxane [1]	Solubility in Lipiodol [1]	Solubility in Methanol [1]	Solubility in Pyridine [1]	Solubility in Water pH 5.0 ([1]; pH 5.0)	Solubility in Water pH 8.0 ([1]; pH 8.0)	Tumor affinity, distant site (normal liver) (cancer VX-2 of liver; 10 mg/kg, 90')	Tumor affinity, interior of tumor (cancer VX-2 of liver; 10 mg/kg, 90')	Tumor affinity, distant site (normal liver) (cancer VX-2 of liver; 15')	Tumor affinity, interior of tumor (cancer VX-2 of liver; 15')	Tumor affinity, distant site (normal liver) (cancer VX-2 of liver; 60')	Tumor affinity, interior of tumor (cancer VX-2 of liver; 60')	Cell toxicity to normal fibroblasts ([2]; 0.1 μg/ml)	Cell toxicity to normal fibroblasts ([2]; 1.0 μg/ml)	LD50 ([2]; footnote to Table 8 (Cf.)) [µg/mL]
neocarzinostatin [NCS]	soluble	insoluble	insoluble	insoluble	insoluble	insoluble	soluble	soluble	0	0	0	0	0	0	-	+	1.0
CO[C@@]12[C@H](COC(N)=O)C3=C(C(=O)C(C)=C(N)C3=O)N1C[C@@H]1N[C@@H]12 [Mitomycin C, reference compound]															+		
